Measured values: US20210190798A1, “METHODS OF QUANTIFYING LIF AND USES THEREOF” (MEDIMMUNE LIMITED, priority 2018, published 2021)

Molecular target: LIF (Homo sapiens, UniProt P15018)
Test: Competitive binding assays against LIF (capture antibody screening)
Protocol: The capture antibody A4 (set forth in SEQ ID NOs: 41 and 42) was determined by screening potential antibodies using competitive binding assays against LIF.

Sequence of LIF (P15018 23-202): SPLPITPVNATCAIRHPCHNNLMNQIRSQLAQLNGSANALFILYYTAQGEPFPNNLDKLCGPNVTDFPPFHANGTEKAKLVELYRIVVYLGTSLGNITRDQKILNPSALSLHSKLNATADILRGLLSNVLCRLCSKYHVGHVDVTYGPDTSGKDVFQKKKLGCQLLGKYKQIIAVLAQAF

B1: A4: rabbit monoclonal anti-LIF capture antibody, variable regions SEQ ID NOs: 41 and 42 (antibody, V domains shown)
VH: EQLEESVGDLVKPGASLTLTCTASGFSFSGLYYMCWVRQAPGKGLEWIACIWTGSTDSTYYATWAKGRFTISKTSSTTVTLQMTSLTVADTATYFCARGGGVPGDGYALWGPGTLVTVSS
VL: GTELVMTQTPASVSEPVGGTVTINCQASEDISSNLVWYQQKSGQPPKLLIYDASMLASGVPSRFKGSGSGTQFTLTISDLECADGATYYCQSYYVASSSYFVNGFGGGTEVV
binding to LIF: high binding | interference with binding by therapeutic antibody h5D8 or M017C3: did not interfere
